Results reported in US20250243272A1 (GOOD T CELLS, published 2025).

T1: Lrig-1 protein expressed on the surfaces of L cells (human, UniProt Q96JA1 35-1093)
T1 construct: no signal peptide limits are stated; also called L cells that stably express Lrig-1
T1 sequence: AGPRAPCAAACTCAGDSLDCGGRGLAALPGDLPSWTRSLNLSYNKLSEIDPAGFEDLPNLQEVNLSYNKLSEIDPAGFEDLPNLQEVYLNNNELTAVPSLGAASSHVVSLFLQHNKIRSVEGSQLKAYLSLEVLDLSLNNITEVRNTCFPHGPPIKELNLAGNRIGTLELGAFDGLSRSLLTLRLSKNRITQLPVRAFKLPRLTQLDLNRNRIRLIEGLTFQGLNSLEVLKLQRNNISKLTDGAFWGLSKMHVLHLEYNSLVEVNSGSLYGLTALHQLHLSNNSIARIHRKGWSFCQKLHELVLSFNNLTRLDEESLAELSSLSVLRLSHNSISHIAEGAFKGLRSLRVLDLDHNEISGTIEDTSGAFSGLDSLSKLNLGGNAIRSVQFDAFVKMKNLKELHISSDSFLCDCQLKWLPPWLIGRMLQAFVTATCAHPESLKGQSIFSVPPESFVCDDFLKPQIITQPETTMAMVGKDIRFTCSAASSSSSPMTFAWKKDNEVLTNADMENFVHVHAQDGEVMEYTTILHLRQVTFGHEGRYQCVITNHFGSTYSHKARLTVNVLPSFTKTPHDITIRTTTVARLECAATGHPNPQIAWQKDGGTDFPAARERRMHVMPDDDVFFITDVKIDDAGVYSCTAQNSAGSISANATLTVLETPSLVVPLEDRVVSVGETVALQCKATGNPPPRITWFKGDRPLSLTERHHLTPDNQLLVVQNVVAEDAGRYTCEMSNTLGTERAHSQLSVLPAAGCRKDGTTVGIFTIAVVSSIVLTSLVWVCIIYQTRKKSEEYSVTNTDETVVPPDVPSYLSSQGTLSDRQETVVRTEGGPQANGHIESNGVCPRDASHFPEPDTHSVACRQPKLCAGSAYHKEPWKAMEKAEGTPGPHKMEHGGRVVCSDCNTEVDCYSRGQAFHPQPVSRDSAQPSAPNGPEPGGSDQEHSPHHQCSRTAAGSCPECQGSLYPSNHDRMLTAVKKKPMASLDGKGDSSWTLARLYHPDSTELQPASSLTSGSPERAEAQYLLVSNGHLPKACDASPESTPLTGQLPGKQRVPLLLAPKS


Target: T1, Lrig-1 protein expressed on the …
Assay: FACS on L cells stably expressing Lrig-1, eFlour 670-conjugated anti-mouse secondary antibody
Procedure: In order to examine whether the monoclonal antibodies according to the present invention, produced in Production Examples 1 to 8, well recognize Lrig-1, each of the antibodies of Production Examples 1 to 8 was bound to L cells that stably express Lrig-1, and then an eFlour 670-conjugated secondary antibody capable of recognizing mouse antibodies was added thereto. Next, the binding affinities of the monoclonal antibodies for the Lrig-1 protein were analyzed using FACS.

Binder | binding result
GTC210-01 clone (Production Example 1) (antibody, mouse IgG2a, V domains shown, the printed full chains carry mouse constant regions) VH: EVQLLESGGGLVQPGGSLRLSCAASGFTFSGYDMSWVRQAPGKGLEWVSLIYPDSGNKYYADSVKGRFTISRDNSKNTLYLQMNSLRAEDTAVYYCARDAGLSWAGAFDYWGQGTLVTVSS VL: QSVLTQPPSASGTPGQRVTISCSGSSSNIGSNYVTWYQQLPGTAPKLLIYSDSHRPSGVPDRFSGSKSGTSASLAISGLQSEDEADYYCGSWDYSLSAYVFGGGTKLTVLR | binds
GTC210-03 clone (Production Example 3) (antibody, mouse IgG2a, V domains shown) VH: EVQLLESGGGLVQPGGSLRLSCAASGFTFSSYDMSWVRQAPGKGLEWVSGISPDGSNIYYADSVKGRFTISRDNSKNTLYLQMNSLRAEDTAVYYCAKVGLRCRYEACSYAYGMDVWGQGTLVTVSS VL: QSVLTQPPSASGTPGQRVTISCSGSSSNIGSNYVSWYQQLPGTAPKLLIYSDSHRPSGVPDRFSGSKSGTSASLAISGLRSEDEADYYCATWDSSLNGYVFGGGTKLTVLR | binds
GTC110-04 clone (Production Example 8) (antibody, mouse IgG2a, V domains shown, also called GTC110-04 antibody; GTTC110-04 antibody) VH: EVQLLESGGGLVQPGGSLRLSCAASGFTFSNYAMSWVRQAPGKGLEWVSVISHGGGSTYYADSVKGRFTISRDNSKNTLYLQMNSLRAEDTAVYYCARVISNCHLGVCYYSNGMDVWGQGTLVTVSS VL: QSVLTQPPSASGTPGQRVTISCSGSSSNIGNNDVYWYQQLPGTAPKLLIYSDSQRPSGVPDRFSGSKSGTSASLAISGLRSEDEADYYCGTWDYSLSGYVFGGGTKLTVLR | binds
GTC 210-04 clone (Production Example 4) (antibody, mouse IgG2a, V domains shown, The printed heavy variable region is the same as that of GTC110-01) VH: EVQLLESGGGLVQPGGSLRLSCAASGFTFSNYDMSWVRQAPGKGLEWVSSISPSSGSIYYADSVKGRFTISRDNSKNTLYLQMNSLRAEDTAVYYCAKDLDAFWRPSFDYWGQGTLVTVSS VL: QSVLTQPPSASGTPGQRVTISCTGSSSNIGNNNVNWYQQLPGTAPKLLIYSDSHRPSGVPDRFSGSKSGTSASLAISGLRSEDEADYYCGSWDDSLSAYVFGGGTKLTVLR | binds

Second part, the binder after the results:

binding result | Binder
binds | GTC110-02 clone (Production Example 6) (antibody, mouse IgG2a, V domains shown) VH: EVQLLESGGGLVQPGGSLRLSCAASGFTFSDYYMSWVRQAPGKGLEWVSGISHDSGSKYYADSVKGRFTISRDNSKNTLYLQMNSLRAEDTAVYYCARHWTTFDYWGQGTLVTVSS VL: QSVLTQPPSASGTPGQRVTISCSGSSSNIGSNNVTWYQQLPGTAPKLLIYANSNRPSGVPDRFSGSKSGTSASLAISGLRSEDEADYYCGAWDYSLSAYVFGGGTKLTVLR
binds | GTC110-03 clone (Production Example 7) (antibody, mouse IgG2a, V domains shown) VH: EVQLLESGGGLVQPGGSLRLSCAASGFTFSNYAMSWVRQAPGKGLEWVSAIYPGGGSIYYADSVKGRFTISRDNSKNTLYLQMNSLRAEDTAVYYCARDILPCPWGRCYYDYAMDVWGQGTLVTVSS VL: QSVLTQPPSASGTPGQRVTISCSDSSSNIGSNTVSWYQQLPGTAPKLLIYADNNRPSGVPDRFSGSKSGTSASLAISGLRSEDEADYYCGTWDYSLSGYVFGGGTKLTVLR
binds | GTC210-02 clone (Production Example 2) (antibody, mouse IgG2a, V domains shown) VH: EVQLLESGGGLVQPGGSLRLSCAASGFTFSNYYMSWVRQAPGKGLEWVSGISPGDSSTYYADSVKGRFTISRDNSKNTLYLQMNSLRAEDTAVYYCAKGLYSNPNEPFDYWGQGTLVTVSS VL: QSVLTQPPSASGTPGQRVTISCTGSSSNIGSNYVSWYQQLPGTAPKLLIYDDSQRPSGVPDRFSGSKSGTSASLAISGLRSEDEADYYCGTWDYSLNGYVFGGGTKLTVLR
